Experimental data as given in the supplement of paper PMC7877785.
± gives the uncertainty stated by the source.

Assay: self-splicing fitness, log relative to wild type (ln ratio); higher = more splicing; Tetrahymena group I intron in knt gene, E. coli kanamycin selection, DiMSum; sequences stand for … in CUCUCU…GGAGGGAAAAGUUAUCAGGCAUGCACCUGGUAGCUAGUCUUUAAACCAAUAGAUUGCAUCGGUUUAAAAGGCAAGACCGUCAAAUUGCGGGAAAGGGGUCAACAGCCGUUCAGUACCAAGUCUCAGGGGAAACUUUGAGAUGGCCUUGCAAAGGGUAUGGUAAUAAGCUGACGGACAUGGUCCUAACCACGCAGCCAAGUCCUAAGUCAACAGAUCUUCUGUUGAUAUGGAUGCAGUUCACAGACUAAAUGUCGGUCGGGGAAGAUGUAUUCUUCUCAUAAGAUAUAGUCGGACCUCUCCUUAAUGGGAGCUAGCGGAUGAAGUGAUGCAACACUGGAGCCGCUGGGAACUAAUUUGUAUGCGAAAGUAUAUUGAUUAGUUUUGGAGUACUCGUGGUCG
Procedure, shortened: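 Six replicate transformations of E. coli BL21(DE3) with a pET-22b(+) library were grown overnight at 37°C or 30°C. The library randomised all eight P1ex-region intron nucleotides, the intron lying in the knt kanamycin-resistance gene, and plates were LB agar with or without 25 μg/mL kanamycin plus 100 μg/mL carbenicillin, 50 μM IPTG and 0.2% rhamnose. Pooled colonies were amplicon-sequenced on an Illumina HiSeq 2500, and fitness is the DiMSum error-weighted combination of wild-type-normalised replicate fold changes, kanamycin versus none.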

Sequence | self-splicing fitness (ln) (30 °C) | self-splicing fitness (ln) (37 °C)
CUGCAGCAAUAUUACGUCGC | -4.61 ± 0.46 | -2.83 ± 0.32
CCCAAGCAAUAUUACGGUUG | -3.99 ± 0.17 | -2.52 ± 0.13
UCCCAGCAAUAUUACGUAUG | -3.3 ± 0.16 | -2.2 ± 0.16
UGGAAGCAAUAUUACGGUAC | -4.18 ± 0.39 | -1.5 ± 0.25
CCCCAGCAAUAUUACGCAAU | -2.96 ± 0.12 | -1.34 ± 0.12
AUUGAGCAAUAUUACGAGUC | -4.1 ± 0.34 | -2.38 ± 0.35
UUAAAGCAAUAUUACGAUGU | -1.91 ± 0.1 | -0.671 ± 0.15
CUUGAGCAAUAUUACGGAUG | -1.75 ± 0.11 | -0.176 ± 0.11
UUGAAGCAAUAUUACGUAUU | -2.69 ± 0.12 | -0.933 ± 0.12
CCGCAGCAAUAUUACGGAGG | -3.01 ± 0.16 | -1.81 ± 0.18
CGAUAGCAAUAUUACGCUGA | -2.46 ± 0.17 | -1.59 ± 0.16
AAUGAGCAAUAUUACGCGGC | -2.15 ± 0.19 | -2.11 ± 0.24
UCAAAGCAAUAUUACGUUCG | -1.17 ± 0.087 | -0.407 ± 0.12
CAUAAGCAAUAUUACGGAGG | -2.3 ± 0.11 | -0.959 ± 0.13
GCUGAGCAAUAUUACGGGUG | -1.72 ± 0.087 | -1.29 ± 0.11
CUUCAGCAAUAUUACGUGAU | -3.65 ± 0.12 | -2.55 ± 0.12
GGGAAGCAAUAUUACGGAAG | -0.00595 ± 0.22 | -1.47 ± 0.39
CGUGAGCAAUAUUACGGUAG | -1.84 ± 0.11 | -1.11 ± 0.11
GAGAAGCAAUAUUACGAGGA | -3.83 ± 0.33 | -2.11 ± 0.19
CCUUAGCAAUAUUACGUGUA | -4.28 ± 0.43 | -1.47 ± 0.15
AUGCAGCAAUAUUACGCAGA | -2.98 ± 0.16 | -1.71 ± 0.12

Sequence | self-splicing fitness (ln) (30 °C) | self-splicing fitness (ln) (37 °C)
CGAUAGCAAUAUUACGCUAA |  | -0.607 ± 0.26
UGGUAGCAAUAUUACGCAGG | -2.77 ± 0.3 | -2.82 ± 0.48
ACGAAGCAAUAUUACGGUUC | -4.09 ± 0.23 | -0.86 ± 0.15
AAUAAGCAAUAUUACGCACG | -1.06 ± 0.11 | -0.851 ± 0.14
ACUUAGCAAUAUUACGAAGG | -2.08 ± 0.12 | -1.33 ± 0.17
AAUUAGCAAUAUUACGACGG | -0.969 ± 0.14 | -0.972 ± 0.25
AUAGAGCAAUAUUACGUAUC | -2.94 ± 0.37 | -2.16 ± 0.43
AACGAGCAAUAUUACGGUAG | -3.73 ± 0.15 | -3.17 ± 0.18
UAGUAGCAAUAUUACGAUUA | -0.381 ± 0.099 | 0.0431 ± 0.098
UUCUAGCAAUAUUACGACUU | -1.77 ± 0.24 | -1.59 ± 0.19
GUCGAGCAAUAUUACGGAAG | -3.26 ± 0.26 | -2.35 ± 0.28
AGCAAGCAAUAUUACGAGGG | -3.29 ± 0.1 | -2.58 ± 0.15
AUUGAGCAAUAUUACGUCGG | -4.24 ± 0.46 | -1.68 ± 0.39
UGGAAGCAAUAUUACGUACC | -1.73 ± 0.19 | -0.601 ± 0.23
AUCUAGCAAUAUUACGAACG | -0.816 ± 0.12 | -0.644 ± 0.22
ACUAAGCAAUAUUACGAAUA | -2.99 ± 0.23 | -2.55 ± 0.25
CGUUAGCAAUAUUACGGAGA | -2.64 ± 0.4 | -1.53 ± 0.43
CAGAAGCAAUAUUACGGAAU | -3.93 ± 0.2 | -1.94 ± 0.18
UGCUAGCAAUAUUACGUAUA | -2.81 ± 0.24 | -1.1 ± 0.16
GGUUAGCAAUAUUACGCCAA | -1.42 ± 0.34 | -2.43 ± 0.33
GCUGAGCAAUAUUACGCUUU | -2.42 ± 0.12 | -2.33 ± 0.18

Sequence | self-splicing fitness (ln) (30 °C) | self-splicing fitness (ln) (37 °C)
AAUCAGCAAUAUUACGCCUG | -0.906 ± 0.17 | 0.165 ± 0.18
ACCCAGCAAUAUUACGCCUG | -2.21 ± 0.12 | -3 ± 0.26
CAUCAGCAAUAUUACGUCAU | -3.06 ± 0.1 | -1.78 ± 0.12
GAGCAGCAAUAUUACGCUAG | -2.4 ± 0.14 | -1.53 ± 0.17
UAAGAGCAAUAUUACGCUAU | -3.95 ± 0.32 | -2.64 ± 0.24
UAACAGCAAUAUUACGUAUC | -3.56 ± 0.19 | -2.43 ± 0.15
GAGCAGCAAUAUUACGGCGA | -1.21 ± 0.099 | -0.604 ± 0.11
GCUUAGCAAUAUUACGUUAU | -1.38 ± 0.093 | -0.881 ± 0.12
AUAUAGCAAUAUUACGGGAC | -2.51 ± 0.48 | -1.82 ± 0.48
AAUAAGCAAUAUUACGAAGC | -3.57 ± 0.43 | 
UCUCAGCAAUAUUACGAGGU |  | -1.53 ± 0.25
AAGGAGCAAUAUUACGGUAG | -3.82 ± 0.29 | -2.75 ± 0.26
GAUCAGCAAUAUUACGUGAU | -3.23 ± 0.18 | -2.93 ± 0.22
AUCCAGCAAUAUUACGCGUC | -3.24 ± 0.12 | -1.3 ± 0.13
GCCAAGCAAUAUUACGCCCG | -2.72 ± 0.29 | -0.836 ± 0.32
GUAGAGCAAUAUUACGGGAG | -3.15 ± 0.47 | -1.85 ± 0.38
GGUGAGCAAUAUUACGGGGC |  | -1.01 ± 0.32
AAUCAGCAAUAUUACGAAGU | -0.414 ± 0.059 | 0.136 ± 0.084
GACAAGCAAUAUUACGCGGC | -2.75 ± 0.17 | -3.11 ± 0.21
